From US20170267750A1, “Method of Treating Ovarian and Renal Cancer Using Antibodies Against T Cell Immunoglobulin Domain and Mucin Domain 1 (TIM-1) Antigen” (Celldex Therapeutics, Inc., priority 2005, published 2017) come the findings set out here.

The test concerns the target TIM-1 (T cell, immunoglobulin domain and mucin domain 1), cell membrane-bound (human) (UniProt Q96D42). The test is described as follows: FACS on polarized human CD4+ Th2 cells, 10 ug/mL mAb, goat anti-human PE (control antibody background).

Chain of TIM-1 (T cell, immunoglobulin domain and mucin domain 1), cell membrane-bound (human) (Q96D42 21-364): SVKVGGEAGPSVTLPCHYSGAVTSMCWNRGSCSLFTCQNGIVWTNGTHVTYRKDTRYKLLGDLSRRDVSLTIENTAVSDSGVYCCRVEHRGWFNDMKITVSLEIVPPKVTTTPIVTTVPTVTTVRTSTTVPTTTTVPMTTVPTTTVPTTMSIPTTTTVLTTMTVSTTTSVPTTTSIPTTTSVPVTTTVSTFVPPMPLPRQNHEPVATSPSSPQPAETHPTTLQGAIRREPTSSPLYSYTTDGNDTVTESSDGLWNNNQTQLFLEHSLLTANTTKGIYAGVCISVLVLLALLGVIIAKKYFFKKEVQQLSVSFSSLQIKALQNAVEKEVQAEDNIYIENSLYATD

Take “isotype matched control mAb PK16.3 (antibody)”: the Geometric mean of fluorescence intensity came to 8.4.
